{"source": "patent US10933132B2", "about": "“Combination of epigenetic factors and bispecific compounds targeting CD33 and CD3 in the treatment of myeloid leukemia” (AMGEN RESEARCH (MUNICH) GMBH, priority 2013, dated 2021)", "molecules": {"B1": {"name": "G-CSF: glycoprotein cytokine that stimulates the bone marrow to produce granulocytes and stem cells (Peprotech) (protein, UniProt P09919 31-207, looked up)", "Granulocyte …": "TPLGPASSLPQSFLLKCLEQVRKIQGDGAALQEKLVSECATYKLCHPEELVLLGHSLGIPWAPLSSCPSQALQLAGCLSQLHSGLFLYQGLLQALEGISPELGPTLDTLQLDVADFATTIWQQMEELGMAPALQPTQGAMPAFASAFQRRAGGVLVASHLQSFLEVSYRVLRHLAQP"}}, "tested_on": "KG1α AML cells", "test": "G-CSF up-regulation of CD33 on AML cell lines, flow cytometry", "type": "cell-based", "conditions": "10 days; for CD33 MFI Ratio: KG1α, untreated 16.5", "protocol": "AML cell lines OCI-AML3 and KG1α were seeded in 24-well plates at 5×10^5 cells/ml on day 0. Cells were either left untreated (UT) or treated with 200 ng/ml (C1) or 2000 ng/ml (C2) G-CSF (Peprotech) for 10 days. G-CSF was freshly added to the cultures biweekly. On day 10, cells were harvested and analyzed for changes in CD33 surface expression by flow cytometry."}
{"molecule": "B1", "values": [{"measurement": "upregulation of CD33 (in words)", "setting": "KG1α AML cells, 200 and 2000 ng/ml", "value": "low upregulation"}, {"measurement": "CD33 MFI Ratio", "setting": "C1 = 200 ng/ml G-CSF", "value": 17.9}, {"measurement": "CD33 MFI Ratio", "setting": "C2 = 2000 ng/ml G-CSF", "value": 19.2}]}
